From patent US20140186327 come the findings set out here.

Series [1] deals with FIX-KLTRAET-XTEN_AE864.
Series [2] deals with FIX-/FXI/-XTEN_AE864.
Series [3] relates to FIX-DFTRVVG-XTEN_AE864.
Series [4] concerns FVII-XTEN_AE288.
Series [5] concerns FVII-XTEN_AE864.
Series [6] addresses T1, soluble tissue factor (sTF), P13726.
T1 chain: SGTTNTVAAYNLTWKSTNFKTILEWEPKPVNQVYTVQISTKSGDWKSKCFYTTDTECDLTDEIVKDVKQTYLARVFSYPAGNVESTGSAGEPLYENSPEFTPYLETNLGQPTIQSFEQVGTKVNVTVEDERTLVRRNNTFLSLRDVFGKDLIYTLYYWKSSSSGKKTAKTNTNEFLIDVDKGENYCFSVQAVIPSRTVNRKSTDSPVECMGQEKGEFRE

Consider FXI protease, for which, in series [1], the Concentration by Activity (ng/ml), aPTT based factor assay amounted to 7 ng/mL; the “Fraction Active (activity / ELISA)” value worked out at 30%; the “fold enhancement of clotting activity against FIX-XTEN (aPTT based factor assay)” value (shortened to “fold enhancement of clotting activity”) is “In all three cases the presence of a FXI cleavage site enhanced the clotting activity by greater than 30-fold”. In series [2], the Concentration by Activity (ng/ml), aPTT based factor assay came out at 11 ng/mL; the “Fraction Active (activity / ELISA)” value is given as 40%; the “fold enhancement of clotting activity” value is “In all three cases the presence of a FXI cleavage site enhanced the clotting activity by greater than 30-fold”. In series [3], the Concentration by Activity (ng/ml), aPTT based factor assay was 9 ng/mL; the “Fraction Active (activity / ELISA)” value turned out to be 34%; the “fold enhancement of clotting activity” value is recorded as “In all three cases the presence of a FXI cleavage site enhanced the clotting activity by greater than 30-fold”.
On to FXa from Novagen, for which the “conversion of FVII-XTEN to FVIIa-XTEN (reducing SDS-PAGE)” value in series [4] and in series [5] was “Reducing SDS-PAGE indicated a complete conversion of FVII-XTEN proteins to FVIIa-XTEN proteins” throughout.

B1: FVIIa-AE288 (protein)
chain: AVFVTQEEAHGVLHRRRRANAFLEELRPGSLERECKEEQCSFEEAREIFKDAERTKLFWISYSDGDQCASSPCQNGGSCKDQLQSYICFCLPAFEGRNCETHKDDQLICVNENGGCEQYCSDHTGTKRSCRCHEGYSLLADGVSCTPTVEYPCGKIPILEKRNASKPQGRIVGGKVCPKGECPWQVLLLVNGAQLCGGTLINTIWVVSAAHCFDKIKNWRNLIAVLGEHDLSEHDGDEQSRRVAQVIIPSTYVPGTTNHDIALLRLHQPVVLTDHVVPLCLPERTFSERTLAFVRFSLVSGWGQLLDRGATALELMVLNVPRLMTQDCLQQSRKVGDSPNITEYMFCAGYSDGSKDSCKGDSGGPHATHYRGTWYLTGIVSWGQGCATVGHFGVYTRVSQYIEWLQKLMRSEPRPGVLLRAPFPGSPGTSESATPESGPGSEPATSGSETPGTSESATPESGPGSEPATSGSETPGTSESATPESGPGTSTEPSEGSAPGSPAGSPTSTEEGTSESATPESGPGSEPATSGSETPGTSESATPESGPGSPAGSPTSTEEGSPAGSPTSTEEGTSTEPSEGSAPGTSESATPESGPGTSESATPESGPGTSESATPESGPGSEPATSGSETPGSEPATSGSETPGSPAGSPTSTEEGTSTEPSEGSAPGTSTEPSEGSAPGSEPATSGSETPGTSESATPESGPGTSTEPSEGSAPGSSS
With B1, the “soluble tissue factor (sTF) induced clotting (Stago STA-Clot FVIIa activity assay)” value in series [6] is reported as “an activity equivalent to 112 U/ml of FVIIa activity”.
